# Results: patent US20240117018A1
# Assays:
# Assay in all cases: cell-based or functional assay
# [1] = target: HIV-1 Env of pseudovirus BJOX028000.10.3 (HIV-1)
# [2] = target: HIV-1 Env of pseudovirus A07412M1.vrc12 (HIV-1)
# [3] = target: HIV-1 Env of pseudovirus 263-8 (HIV-1)
# [4] = target: HIV-1 Env of pseudovirus C4118.c09 (HIV-1)
# [5] = target: HIV-1 Env of pseudovirus 3016.v5.c45 (HIV-1)
# [6] = target: HIV-1 Env of pseudovirus BJOX015000.11.5 (HIV-1)
# [7] = target: HIV-1 Env of pseudovirus C3347.c11 (HIV-1)
# [8] = target: HIV-1 Env of pseudovirus 211-9 (HIV-1)
# [9] = target: HIV-1 Env of pseudovirus 3103.v3.c10 (HIV-1)
# [10] = target: HIV-1 Env of pseudovirus 6545.v4.c1 (HIV-1)
# [11] = target: HIV-1 Env of pseudovirus 235-47 (HIV-1)
# [12] = target: HIV-1 Env of pseudovirus T251-18 (HIV-1)
# [13] = target: HIV-1 Env of pseudovirus R2184.c04 (HIV-1)
# [14] = target: HIV-1 Env of pseudovirus BJOX025000.01.1 (HIV-1)
# [15] = target: HIV-1 Env of pseudovirus 6480.v4.c25 (HIV-1)
# [16] = target: HIV-1 Env of pseudovirus 3301.v1.c24 (HIV-1)
# [17] = target: HIV-1 Env of pseudovirus 191955_A11 (HIV-1)
# [18] = target: HIV-1 Env of pseudovirus R1166.c01 (HIV-1)
# [19] = target: HIV-1 Env of pseudovirus 231965.c01 (HIV-1)
# [20] = target: HIV-1 Env of pseudovirus P1981_C5_3 (HIV-1)
# [21] = target: HIV-1 Env of pseudovirus R3265.c06 (HIV-1)
# [22] = target: HIV-1 Env of pseudovirus 620345.c01 (HIV-1)
# [23] = target: HIV-1 Env of pseudovirus 0815.v3.c3 (HIV-1)
# [24] = target: HIV-1 Env of pseudovirus BJOX010000.06.2 (HIV-1)
# [25] = target: HIV-1 Env of pseudovirus P0402_c2_11 (HIV-1)
# [26] = target: HIV-1 Env of pseudovirus 9004SS_A3_4 (HIV-1)
# [27] = target: HIV-1 Env of pseudovirus 928-28 (HIV-1)
# [28] = target: HIV-1 Env of pseudovirus 6540.v4.c1 (HIV-1)
# [29] = target: HIV-1 Env of pseudovirus X1254_c3 (HIV-1)
# [30] = target: HIV-1 Env of pseudovirus 231966.c02 (HIV-1)
# [31] = target: HIV-1 Env of pseudovirus T255-34 (HIV-1)
# [32] = target: HIV-1 Env of pseudovirus 89-F1_2_25 (HIV-1)
# [33] = target: HIV-1 Env of pseudovirus X2131_C1_B5 (HIV-1)
# [34] = target: HIV-1 Env of pseudovirus T257-31 (HIV-1)
# [35] = target: HIV-1 Env of pseudovirus 6952.v1.c20 (HIV-1)
# [36] = target: HIV-1 Env of pseudovirus 3817.v2.c59 (HIV-1)
# [37] = target: HIV-1 Env of pseudovirus 6811.v7.c18 (HIV-1)
substance,measurement,setting,value
N49P7 (antibody),IC50,[1],0.02 µg/mL
same,IC80,[1],0.123 µg/mL
same,MPI,[1],100
same,"IC50 (neutralisation, TZM.bl cells)",[2],0.108 µg/mL
same,"IC80 (neutralisation, TZM.bl cells)",[2],0.645 µg/mL
same,MPI,[2],100
same,IC50,[3],0.056 µg/mL
same,IC80,[3],0.201 µg/mL
same,MPI,[3],100
same,IC50,[4],0.043 µg/mL
same,IC80,[4],0.147 µg/mL
same,MPI,[4],100
same,"IC50 (neutralisation, TZM.bl cells)",[5],0.221 µg/mL
same,"IC80 (neutralisation, TZM.bl cells)",[5],1.04 µg/mL
same,MPI,[5],100
same,IC50,[6],0.036 µg/mL
same,IC80,[6],0.157 µg/mL
same,MPI,[6],100
same,IC50,[7],0.024 µg/mL
same,IC80,[7],0.067 µg/mL
same,MPI,[7],100
same,IC50,[8],0.22 µg/mL
same,IC80,[8],0.767 µg/mL
same,MPI,[8],100
same,"IC50 (neutralisation, TZM.bl cells)",[9],0.158 µg/mL
same,"IC80 (neutralisation, TZM.bl cells)",[9],0.509 µg/mL
same,MPI,[9],100
same,"IC50 (neutralisation, TZM.bl cells)",[10],2 µg/mL
same,"IC80 (neutralisation, TZM.bl cells)",[10],14.7 µg/mL
same,MPI,[10],96
same,IC50,[11],0.045 µg/mL
same,IC80,[11],0.3 µg/mL
same,MPI,[11],99
same,IC50,[12],0.178 µg/mL
same,IC80,[12],0.62 µg/mL
same,MPI,[12],100
same,IC50,[13],0.011 µg/mL
same,IC80,[13],0.031 µg/mL
same,MPI,[13],100
same,IC50,[14],0.038 µg/mL
same,IC80,[14],0.236 µg/mL
same,MPI,[14],100
same,"IC50 (neutralisation, TZM.bl cells)",[15],0.031 µg/mL
same,"IC80 (neutralisation, TZM.bl cells)",[15],0.113 µg/mL
same,MPI,[15],100
same,"IC50 (neutralisation, TZM.bl cells)",[16],0.025 µg/mL
same,"IC80 (neutralisation, TZM.bl cells)",[16],0.069 µg/mL
same,MPI,[16],100
same,IC50,[17],1.81 µg/mL
same,IC80,[17],8.87 µg/mL
same,MPI,[17],99
same,IC50,[18],0.092 µg/mL
same,IC80,[18],0.313 µg/mL
same,MPI,[18],100
same,"IC50 (neutralisation, TZM.bl cells)",[19],0.054 µg/mL
same,"IC80 (neutralisation, TZM.bl cells)",[19],0.193 µg/mL
same,MPI,[19],100
same,"IC50 (neutralisation, TZM.bl cells)",[20],0.113 µg/mL
same,"IC80 (neutralisation, TZM.bl cells)",[20],0.274 µg/mL
same,MPI,[20],100
same,IC50,[21],0.048 µg/mL
same,IC80,[21],0.282 µg/mL
same,MPI,[21],100
same,IC50,[22],23.2 µg/mL
same,IC80,[22],47.9 µg/mL
same,MPI,[22],82
same,"IC50 (neutralisation, TZM.bl cells)",[23],0.016 µg/mL
same,"IC80 (neutralisation, TZM.bl cells)",[23],0.053 µg/mL
same,MPI,[23],100
same,IC50,[24],0.085 µg/mL
same,IC80,[24],0.592 µg/mL
same,MPI,[24],100
same,IC50,[25],0.014 µg/mL
same,IC80,[25],0.061 µg/mL
same,MPI,[25],100
same,IC50,[26],0.125 µg/mL
same,IC80,[26],0.39 µg/mL
same,MPI,[26],100
same,IC50,[27],0.167 µg/mL
same,IC80,[27],0.579 µg/mL
same,MPI,[27],100
same,"IC50 (neutralisation, TZM.bl cells)",[28],11.7 µg/mL
same,"IC80 (neutralisation, TZM.bl cells)",[28],33.2 µg/mL
same,MPI,[28],92
same,IC50,[29],2.97 µg/mL
same,IC80,[29],13.6 µg/mL
same,MPI,[29],100
same,"IC50 (neutralisation, TZM.bl cells)",[30],0.102 µg/mL
same,"IC80 (neutralisation, TZM.bl cells)",[30],0.43 µg/mL
same,MPI,[30],100
same,IC50,[31],0.053 µg/mL
same,IC80,[31],0.262 µg/mL
same,MPI,[31],100
same,"IC50 (neutralisation, TZM.bl cells)",[32],21.6 µg/mL
same,"IC80 (neutralisation, TZM.bl cells)",[32],> 50 µg/mL
same,MPI,[32],80
same,"IC50 (neutralisation, TZM.bl cells)",[33],0.081 µg/mL
same,"IC80 (neutralisation, TZM.bl cells)",[33],0.273 µg/mL
same,MPI,[33],100
same,IC50,[34],0.158 µg/mL
same,IC80,[34],0.619 µg/mL
same,MPI,[34],100
same,"IC50 (neutralisation, TZM.bl cells)",[35],18.4 µg/mL
same,"IC80 (neutralisation, TZM.bl cells)",[35],38.9 µg/mL
same,MPI,[35],91
same,"IC50 (neutralisation, TZM.bl cells)",[36],0.716 µg/mL
same,"IC80 (neutralisation, TZM.bl cells)",[36],3.73 µg/mL
same,MPI,[36],99
same,"IC50 (neutralisation, TZM.bl cells)",[37],0.229 µg/mL
same,"IC80 (neutralisation, TZM.bl cells)",[37],0.992 µg/mL
same,MPI,[37],100
